B1: Gst-MKRN3 middle region (126-295aa) (domain or fragment, human, UniProt Q13064 126-295, looked up)
chain: MATEGGVSPPGASAGGGPSTAAHIEPPTQEVAEAPPAASSLSLPVIGSAAERGFFEAERDNADRGAAGGAGVESWADAIEFVPGQPYRGRWVASAPEAPLQSSETERKQMAVGSGLRFCYYASRGVCFRGESCMYLHGDICDMCGLQTLHPMDAAQREEHMRACIEAHEK
notes: source: E. coli BL21, purified (glutathione beads, eluted with reduced glutathione, dialyzed)
B2: recombinant Gst-tagged MKRN3 (natural protein, human, UniProt Q13064 1-507, looked up)
chain: MEEPAAPSEAHEAAGAQAGAEAAREGVSGPDLPVCEPSGESAAPDSALPHAARGWAPFPVAPVPAHLRRGGLRPAPASGGGAWPSPLPSRSSGIWTKQIICRYYIHGQCKEGENCRYSHDLSGRKMATEGGVSPPGASAGGGPSTAAHIEPPTQEVAEAPPAASSLSLPVIGSAAERGFFEAERDNADRGAAGGAGVESWADAIEFVPGQPYRGRWVASAPEAPLQSSETERKQMAVGSGLRFCYYASRGVCFRGESCMYLHGDICDMCGLQTLHPMDAAQREEHMRACIEAHEKDMELSFAVQRGMDKVCGICMEVVYEKANPNDRRFGILSNCNHSFCIRCIRRWRSARQFENRIVKSCPQCRVTSELVIPSEFWVEEEEEKQKLIQQYKEAMSNKACRYFAEGRGNCPFGDTCFYKHEYPEGWGDEPPGPGGGSFSAYWHQLVEPVRMGEGNMLYKSIKKELVVLRLASLLFKRFLSLRDELPFSEDQWDLLHYELEEYFNLIL
notes: MKRN3, human, full length; Written Gst-MKRN3; also called Gst-MKRN3; full length MKRN3; source: E. coli BL21, purified (glutathione beads, eluted with reduced glutathione, dialyzed)

How the values were obtained:
PABPC1-His6 = target: T1, PABPC1-His6 (human, UniProt P11940 1-636); assay: pull-down; GST pull-down: 20 μg purified Gst-MKRN or MKRN3 truncation, 20 μg PABP-His6 or truncation and Glutathione Sepharose 4B, 4°C overnight in 500 μl of 20 mM Tris-Cl, 100 mM NaCl, 5 mM MgCl2, 1 mM EDTA, 1 mM DTT, 0.5% NP-40, 10 μg/ml BSA, pH 7.5; five washes; Coomassie staining and anti-His immunoblot; settings: both partners purified
T1 construct: PABPC1, human, full length; Written PABPC1-His6; also called His6-tagged PABPC1; full length PABPC1; source: E. coli BL21, purified (Ni beads, eluted with imidazole, dialyzed)
T1 sequence (P11940 whole entry, the tested form may be a part): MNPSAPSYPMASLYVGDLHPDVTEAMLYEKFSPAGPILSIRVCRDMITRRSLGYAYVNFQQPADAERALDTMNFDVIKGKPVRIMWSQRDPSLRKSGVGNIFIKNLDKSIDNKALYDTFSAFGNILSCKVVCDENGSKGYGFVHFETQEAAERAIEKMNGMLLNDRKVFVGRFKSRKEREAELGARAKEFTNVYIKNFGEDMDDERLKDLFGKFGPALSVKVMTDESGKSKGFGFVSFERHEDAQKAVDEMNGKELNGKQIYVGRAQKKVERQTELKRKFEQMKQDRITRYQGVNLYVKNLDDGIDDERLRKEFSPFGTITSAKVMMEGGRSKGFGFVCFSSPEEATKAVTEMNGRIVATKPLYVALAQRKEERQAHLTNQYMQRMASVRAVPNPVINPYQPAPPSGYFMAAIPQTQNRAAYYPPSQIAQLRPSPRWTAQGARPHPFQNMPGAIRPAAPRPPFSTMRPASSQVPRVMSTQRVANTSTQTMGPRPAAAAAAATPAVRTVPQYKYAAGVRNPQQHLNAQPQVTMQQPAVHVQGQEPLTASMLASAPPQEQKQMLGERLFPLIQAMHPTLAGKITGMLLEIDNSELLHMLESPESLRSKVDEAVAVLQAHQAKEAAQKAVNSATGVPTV

PABPC3-His6 = target: T2, PABPC3-His6 (human, UniProt Q9H361 1-631); assay: as above; settings: both partners purified
T2 construct: PABPC3, human; also called His6-tagged PABPC3; source: E. coli BL21, purified (Ni beads, eluted with imidazole, dialyzed)
T2 sequence (Q9H361 whole entry): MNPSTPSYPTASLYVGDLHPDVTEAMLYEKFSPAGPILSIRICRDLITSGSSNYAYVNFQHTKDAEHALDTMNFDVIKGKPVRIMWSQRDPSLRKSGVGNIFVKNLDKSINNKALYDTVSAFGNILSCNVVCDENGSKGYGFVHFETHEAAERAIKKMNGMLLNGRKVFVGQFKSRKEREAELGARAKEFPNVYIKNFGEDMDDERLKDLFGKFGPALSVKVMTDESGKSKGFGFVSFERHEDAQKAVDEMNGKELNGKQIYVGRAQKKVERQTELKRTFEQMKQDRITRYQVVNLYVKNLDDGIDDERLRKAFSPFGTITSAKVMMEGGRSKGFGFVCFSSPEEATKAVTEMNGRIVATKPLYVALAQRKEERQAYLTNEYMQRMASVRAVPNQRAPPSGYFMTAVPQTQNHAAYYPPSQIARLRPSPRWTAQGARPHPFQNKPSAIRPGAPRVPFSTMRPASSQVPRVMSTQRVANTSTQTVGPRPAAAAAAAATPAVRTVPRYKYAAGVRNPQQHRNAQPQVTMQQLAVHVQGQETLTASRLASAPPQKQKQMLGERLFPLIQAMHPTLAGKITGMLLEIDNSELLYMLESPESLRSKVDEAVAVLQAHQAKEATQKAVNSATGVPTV

PABPC1 = PABPC1 (human, UniProt P11940 1-636); assay: EMSA; unmodified; EMSA Binding Buffer (Beyotime, 5x stock; composition, salt and pH not given), room temperature, 1 h; 8% polyacrylamide 0.5x TBE gel; settings: protein: recombinant; tags: Flag-His6 (pET28a-PABPC1-Flag-His6); label: 32P (gamma-32P, stated at 3' end by T4 PNK); single strand
Chain of PABPC1 (P11940 whole entry): as the sequence (P11940 whole entry, the tested form may be a part) above

PABPC4 = PABPC4 (human, UniProt Q13310 1-644); assay: as above; settings: protein: recombinant; tags: Flag-His6 (pET28a-PABPC4-Flag-His6); label: 32P (gamma-32P, stated at 3' end by T4 PNK); single strand
Chain of PABPC4 (Q13310 whole entry): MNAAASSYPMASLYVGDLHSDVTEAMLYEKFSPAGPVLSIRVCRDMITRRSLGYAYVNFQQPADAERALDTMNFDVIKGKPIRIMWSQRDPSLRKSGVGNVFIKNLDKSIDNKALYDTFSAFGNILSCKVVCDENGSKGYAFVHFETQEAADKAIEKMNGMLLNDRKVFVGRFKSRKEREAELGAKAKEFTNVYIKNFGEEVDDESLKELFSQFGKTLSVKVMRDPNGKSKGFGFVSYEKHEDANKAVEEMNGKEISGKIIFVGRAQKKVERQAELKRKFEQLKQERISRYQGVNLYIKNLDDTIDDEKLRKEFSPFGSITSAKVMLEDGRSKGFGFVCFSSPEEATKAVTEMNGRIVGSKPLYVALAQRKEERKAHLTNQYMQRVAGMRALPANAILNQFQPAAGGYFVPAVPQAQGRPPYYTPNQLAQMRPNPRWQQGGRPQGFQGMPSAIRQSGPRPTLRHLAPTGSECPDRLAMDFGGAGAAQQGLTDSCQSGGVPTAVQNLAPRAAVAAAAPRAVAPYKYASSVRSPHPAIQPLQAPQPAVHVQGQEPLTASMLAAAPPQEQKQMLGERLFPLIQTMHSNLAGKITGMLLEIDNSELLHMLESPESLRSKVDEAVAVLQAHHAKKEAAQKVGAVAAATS

| Binder | binding result (PABPC1-His6) | binding result (PABPC3-His6) | binding result (PABPC1) | binding result (PABPC4) |
| --- | --- | --- | --- | --- |
| B1 | binds |  |  |  |
| B2 | binds | binds |  |  |
| AAAAAAAAAAAAAAAAAAAAAAAAAAAAAA (ssRNA) [(A)30 RNA] |  |  | binds | binds |

— PMC8053111, “MKRN3-mediated ubiquitination of Poly(A)-binding proteins modulates the stability and translation of GNRH1 mRNA in mammalian puberty” (Nucleic Acids Research, 2021)
